In publication PMC2391292:

Target: human CD81 tetraspanin membrane receptor, CD81-GlyGly-rho-1D4 (human) (UniProt P60033)
Assay: ELISA; plates coated with 100 ng rho-1D4 antibody; 100 ng purified CD81 captured by its C-terminal tag; HCV-E2 added at 0.4 to 20 nM for 2 h at room temperature in 25 mM Tris-HCl pH 7.5, 144 mM NaCl, 0.05% DM; detected with goat anti-E2 polyclonal antibody; nonspecific binding (no rho-1D4) subtracted; non-linear regression

Chain of UniProt P60033 (P60033 whole entry): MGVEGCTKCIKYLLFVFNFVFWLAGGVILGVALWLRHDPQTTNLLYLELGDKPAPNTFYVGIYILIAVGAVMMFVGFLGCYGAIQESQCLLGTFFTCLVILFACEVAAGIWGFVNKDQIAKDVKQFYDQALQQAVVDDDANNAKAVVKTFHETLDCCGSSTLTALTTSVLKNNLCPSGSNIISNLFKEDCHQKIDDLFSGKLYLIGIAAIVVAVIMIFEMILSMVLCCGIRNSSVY

“Recombinant HCV E2 envelope protein (from UniProt P27958 384-746) (ligand)” showed a Kd of 3.8 nM.
